Measurements from US20240182530A1.

Legend:
[1] = target: Gre2p-SpyTag003 Loop B (Saccharomyces cerevisiae) (UniProt Q12068); assay: isopeptide bond formation, 5 µM each, PBS pH 7.5, 25 °C, SDS-PAGE densitometry
sfGFP-SpyTag003 Loop A [2] = assay: as above
sfGFP-SpyTag003 Loop A [3] = assay: isopeptide bond formation, SDS-PAGE densitometry; reference SpyTag003 as a terminal fusion with SpyCatcher003

Chain of UniProt Q12068 (Q12068 other isoform, or with tags, fused parts or gaps): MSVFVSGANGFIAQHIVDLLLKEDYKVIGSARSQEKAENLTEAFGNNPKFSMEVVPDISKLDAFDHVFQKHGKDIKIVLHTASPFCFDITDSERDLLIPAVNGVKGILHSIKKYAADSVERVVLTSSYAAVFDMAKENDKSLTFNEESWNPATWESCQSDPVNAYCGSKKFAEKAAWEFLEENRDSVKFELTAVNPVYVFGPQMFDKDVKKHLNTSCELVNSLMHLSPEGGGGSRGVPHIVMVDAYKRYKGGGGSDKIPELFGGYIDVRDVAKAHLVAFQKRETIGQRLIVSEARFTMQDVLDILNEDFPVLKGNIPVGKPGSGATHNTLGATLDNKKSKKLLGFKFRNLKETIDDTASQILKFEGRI

SpyCatcher003 (designed binder) showed a second-order rate constant [1] of 93 M⁻¹ s⁻¹, a second-order rate constant (sfGFP-SpyTag003 Loop A [2]) of 87 M⁻¹ s⁻¹ and a fold slower than SpyTag003 as a terminal fusion (sfGFP-SpyTag003 Loop A [3]) of 6000 fold.
